# Where a SMILES comes first, the peptide text is derived from it. Where no end group is shown, it is not given here. The star is where a group is joined. DTPA = O=C(O)CN(CCN(CC(=O)O)CC(=O)O)CCN(CC(=O)O)CC(=O)*
# How the values were obtained:
# [1] = biological target: T1, native 7E11-C5 antigen in LNCaP lysates (Homo sapiens, UniProt Q04609); test: Sandwich assay: capture of antigen from LNCaP cell lysate; assay type: binding; details: detection with biotinylated 7E11-C5, FIG. 6
# T1 construct: endogenous in cells; host or cells: LNCaP cell lysate
# Procedure: A sandwich assay using the LNCaP antigen was performed. The wells of a microtiter plate were coated with either monoclonal antibody 7E11-C5, the clone 14 7E11-C5 abtide, or, as a negative control, BSA. Coating and washing was as for-the assay described in Section 6.1.2.2. One hundred microliters of a lysate of LNCaP cells was added to the wells. The LNCaP lysate was prepared as described in PCT publication WO 94/18318, dated Aug. 18, 1994. Following capture of the lysate on the plate, 100 μL of a 5 μg/mL solution of biotinylated 7E11-CS monoclonal antibody was added to each well. Following incubation and washing as in Section 6.1.2.2, a 1:2000 dilution of Extravidin-Alkaline Phosphatase (4,250 units/mL) (Sigma, St. Louis, Mo.) in PBS was added to each well and incubated for 1 hour at room temperature. Following incubation, the wells were washed four times with 1% BSA in PBS and then twice in PBS. One hundred microliters of a 1 mg/mL solution of p-nitrophenyl phosphate in diethanol amine (DEA) buffer (both from Kirkegaard & Perry Laboratories, Gaithersburg, Md.) was then added and, after incubation at room temperature for 15-30 minutes, the absorbance of the solutions in the wells was read at 405 nm.
# This was a surprising discovery and would not have been predicted by those skilled in the art. […]
# [2] = tested on: biotinylated 7E11-9.5 mimetope peptide; test: Dot blot: spotted 7E11-C5 abtides probed with biotinylated mimetope peptide; assay type: binding; details: 1 μL of 1 mg/mL abtide spotted on nitrocellulose; 0.1 mg/mL mimetope; FIG. 4
# Procedure: In some cases, these abtides were used in a dot blot experiment. In those cases, 1 μL of a 1 mg/mL solution of the 38-residue abtides was spotted onto nitrocellulose (0.2 μm or 0.45 μm, Schleicher & Schuell, Keene, NH) strips or circles. After drying (about 1/2 hour), the nitrocellulose was blocked for 1 hour in a solution of 1% BSA in PBS. The nitrocellulose was then allowed to incubate in approximately 5 mL of a solution of 0.1 mg/mL of a biotinylated 7E11-9.5 mimetope peptide (biotin-LYANPGMYSRLHSPA). This mimetope peptide was one of those described in Section 6.1.1 above that were synthesized based upon the nine peptides that were identified in the screening of Section 6.1.1 above. After an hour, the nitrocellulose was washed approximately 5 times with a solution of 1% BSA in PBS. A 1:2000 dilution of Extravidin-Alkaline Phosphatase (4,250 units/mL) (Sigma, St. Louis, Mo.) in PBS was then added and allowed to incubate for 1 hour, after which the nitrocellulose was again washed extensively. Finally, a solution of 5-bromo-4-chloro-3-indolyl phosphate (0.15 mg/mL) and nitro blue tetrazolium (0.3 mg/mL) (Sigma, St Louis, Mo.) (BCIP/NBT) was added as an enzyme substrate. Color was allowed to develop […].
# In FIG. 4, the 7E11-C5 abtides known as clone 14, clone 17, clone 15, clone 16, and clone 13 were tested for their ability to bind the biotinylated 7E11-9.5 mimetope peptide. Also tested, as a positive control, was the monoclonal antibody 7E11-C5. 7E11-C5 was spotted onto the region marked 351 in FIG. 4.
# [3] = tested on: human prostate carcinoma LNCaP xenograft tumors; test: in vivo; parameters: species or system SCID mice; details: mouse, iv
# Procedure: (§1) Male SCID mice (C.B-17/Icr Tac—SCID mice) were purchased from Fox Chase (Philadelphia, Pa.) or. Taconic Farms (Germantown, N.Y.), were housed in sterilized cages with filter bonnets, and were given autoclaved laboratory rodent chow (Purina, St. Louis, Mo.), and filtered tap water ad libitum.
# (§2) 1×10^7 cells of the human prostate tumor line LNCaP (Horoszewicz et al., 1987, Anticancer Res. 7:927-936) were injected subcutaneously (s.c.) into the left rear flank of the mice. The cells were growing in exponential phase before harvesting and had been resuspended in 0.2 mL of sterile saline. Tumors were grown in the mice for 2-3 months before abtides were injected into the mice.
# (§3) For biodistribution studies, abtides were modified at their amino termini with the chelator diethylene-triamine-pentaacetic acid anhydride (DTPA-A) (Sigma, St. Louis, Mo.). Approximately 2 mg of each abtide was initially dissolved in an appropriate volume of 0.1% acetic acid and then 1 mL of 0.1 M sodium bicarbonate, pH 8.0, was added. Two mg of DTPA-A was suspended in 100 AL of dimethylsulfoxide (DMSO), and 10 μL of the abtide solution added to this DTPA-A suspension. […]
# (§4) In one experiment, abtide clone 14-DPTA-^111In (see Table 2) was injected intravenously (i.v.) into two groups of mice bearing measurable LNCaP xenografts. […] Thus, the total injected dose of radioactivity was about 120-140×10^6 cpm.
# (§5) The first group of mice was sacrificed 2 hours after injection of the abtide and tissues were dissected for analysis. […] Dissected tissues were weighed and the amount of ^111In in them was determined by gamma counting. The cpm per gram of each tissue was calculated by dividing the cpm of ^111In found in the tissue by the weight in grams of the tissue. […]
# (§6) In another experiment, abtide clone 17-DPTA-^111In (see Table 2) was injected intravenously into four SCID mice bearing measurable LNCaP xenografts. […] Thus, the total injected dose of radioactivity was about 100-110×10^6 cpm. […]
# in vivo = test: in vivo; parameters: species or system SCID mice; details: male, C.B-17/Icr Tac-SCID, mouse, iv, 2 ug, total radioactivity
# Procedure: as §1, §2, §3, §4, §5, §6
# [4] = tested on: monoclonal antibody 7E11-C5; test: ELISA: biotinylated monoclonal antibody 7E11-C5 binding to immobilized mimetope peptide 7E11-9.5; parameters: species or system murine; details: wells coated with 5 μg/mL mimetope; antibody serially diluted from 29 μg/mL; FIG. 2
# Procedure: First the mimetope peptide 7 μl-9.5 was tested for its ability to bind to the monoclonal antibody 7E11-C5. Ninety-six well plates (Immunlon 4, Dynatech, Alexandria, Va.) were coated with 50 μL of a 5 μg/mL solution of the mimetope peptide 7 μl-9.5 and incubated overnight at room temperature. Following incubation, the wells were washed 4 times with 1% BSA in PBS. Biotinylated monoclonal antibody 7E11-C5 was serially diluted with PBS beginning with a concentration of 29 μg/mL and various amounts of the monoclonal antibody were added to the wells that had been coated with the mimetope peptide. After incubating for 1 hour at room temperature, the wells were washed four times with 1% BSA in PBS and 2 times with PBS. Then, 100 AL of a 1:2000 dilution of Extravidin-Alkaline Phosphatase (4,250 units/mL) (Sigma, St. Louis, Mo.) in PBS was added to each well. After an hour, the plate was again washed 4 times with PBS and 100 μL of a 1 mg/mL solution of the enzyme substrate p-nitrophenyl phosphate was added to each well. Color was allowed to develop for 15 minutes to 1 hour and absorbance was read at 405 nm.
# T1 sequence (Q04609 whole entry): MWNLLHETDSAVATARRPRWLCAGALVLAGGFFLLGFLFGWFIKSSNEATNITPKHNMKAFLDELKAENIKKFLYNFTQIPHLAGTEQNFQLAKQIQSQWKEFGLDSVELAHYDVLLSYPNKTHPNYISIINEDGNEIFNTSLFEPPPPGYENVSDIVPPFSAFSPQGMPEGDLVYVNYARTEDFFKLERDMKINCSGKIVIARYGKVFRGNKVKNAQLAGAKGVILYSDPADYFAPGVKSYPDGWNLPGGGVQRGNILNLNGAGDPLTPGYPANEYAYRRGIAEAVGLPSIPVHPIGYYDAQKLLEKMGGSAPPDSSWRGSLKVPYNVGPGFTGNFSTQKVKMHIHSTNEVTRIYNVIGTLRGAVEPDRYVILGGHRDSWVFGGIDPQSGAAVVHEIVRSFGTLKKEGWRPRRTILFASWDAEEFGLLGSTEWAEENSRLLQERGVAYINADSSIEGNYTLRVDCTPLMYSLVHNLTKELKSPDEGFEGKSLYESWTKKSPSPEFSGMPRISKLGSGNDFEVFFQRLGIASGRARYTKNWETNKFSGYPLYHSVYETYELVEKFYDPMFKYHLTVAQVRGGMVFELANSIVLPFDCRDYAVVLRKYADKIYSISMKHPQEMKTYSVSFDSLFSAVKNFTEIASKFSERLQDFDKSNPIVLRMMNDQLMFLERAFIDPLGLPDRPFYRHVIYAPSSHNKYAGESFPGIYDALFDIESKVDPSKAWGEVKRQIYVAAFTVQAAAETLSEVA
compound,measurement,setting,value
GIINANDPLPFWFMSPYTPGPAPIDINASRALVSNESG [clone 14],recognition (capture) of native 7E11-C5 antigen,[1],capable of recognizing the native 7E11-C5 antigen in LNCaP lysates
same,binding of biotinylated 7E11-9.5 mimetope peptide in dot blot,[2],bound the mimetope
"CC[C@H](C)[C@H](NC(=O)CNC(=O)CN(CCN(CCN(CC(=O)O)CC(=O)O)CC(=O)O)CC(=O)O)C(=O)N[C@H](C(=O)N[C@@H](CC(N)=O)C(=O)N[C@@H](C)C(=O)N[C@@H](CC(N)=O)C(=O)N[C@@H](CC(=O)O)C(=O)N1CCC[C@H]1C(=O)N[C@@H](CC(C)C)C(=O)N1CCC[C@H]1C(=O)N[C@@H](Cc1ccccc1)C(=O)N[C@@H](Cc1c[nH]c2ccccc12)C(=O)N[C@@H](Cc1ccccc1)C(=O)N[C@@H](CCSC)C(=O)N[C@@H](CO)C(=O)N1CCC[C@H]1C(=O)N[C@@H](Cc1ccc(O)cc1)C(=O)N[C@H](C(=O)N1CCC[C@H]1C(=O)NCC(=O)N1CCC[C@H]1C(=O)N[C@@H](C)C(=O)N1CCC[C@H]1C(=O)N[C@H](C(=O)N[C@@H](CC(=O)O)C(=O)N[C@H](C(=O)N[C@@H](CC(N)=O)C(=O)N[C@@H](C)C(=O)N[C@@H](CO)C(=O)N[C@@H](CCCNC(=N)N)C(=O)N[C@@H](C)C(=O)N[C@@H](CC(C)C)C(=O)N[C@H](C(=O)N[C@@H](CO)C(=O)N[C@@H](CC(N)=O)C(=O)N[C@@H](CCC(=O)O)C(=O)N[C@@H](CO)C(=O)NCC(N)=O)C(C)C)[C@@H](C)CC)[C@@H](C)CC)[C@@H](C)O)[C@@H](C)CC [abtide clone 14-DPTA-^111In, metal not drawn] ({DTPA}-GIINANDPLPFWFMSPYTPGPAPIDINASRALVSNESG-NH2; N-terminus and C-terminus assumed)",localization to LNCaP xenograft tumors,[3],specific localization to the tumor
same,tissue to tissue ratio at 2 h,in vivo,1.85
"LYANPGMYSRLHSPA (not fully specified (N-terminus, C-terminus)) [7E11-9.5]",binding of monoclonal antibody 7E11-C5 to mimetope (absorbance at 405 nm),[4],binds to the synthesized mimetope 7E11-9.5 in a concentration dependent manner
"CC[C@H](C)[C@H](NC(=O)[C@H](Cc1ccccc1)NC(=O)[C@@H](NC(=O)[C@@H]1CCCN1C(=O)[C@@H](NC(=O)[C@H](Cc1ccccc1)NC(=O)CNC(=O)[C@@H]1CCCN1C(=O)[C@@H](NC(=O)[C@H](Cc1ccc(O)cc1)NC(=O)[C@H](C)NC(=O)[C@H](CC(N)=O)NC(=O)[C@H](Cc1ccc(O)cc1)NC(=O)[C@H](CC(C)C)NC(=O)[C@H](CC(C)C)NC(=O)[C@H](Cc1ccccc1)NC(=O)[C@H](CCCNC(=N)N)NC(=O)CNC(=O)[C@H](Cc1ccccc1)NC(=O)[C@H](CC(=O)O)NC(=O)[C@H](CC(C)C)NC(=O)[C@H](CC(N)=O)NC(=O)[C@H](CCCNC(=N)N)NC(=O)[C@H](CO)NC(=O)[C@H](CC(C)C)NC(=O)[C@H](CC(=O)O)NC(=O)CN(CCN(CCN(CC(=O)O)CC(=O)O)CC(=O)O)CC(=O)O)C(C)C)[C@@H](C)O)[C@@H](C)O)C(=O)N[C@@H](CO)C(=O)N[C@@H](CC(C)C)C(=O)N[C@H](C(=O)N[C@@H](C)C(=O)N[C@@H](CCC(=O)O)C(=O)N[C@@H](Cc1c[nH]cn1)C(=O)N[C@@H](CC(C)C)C(=O)N[C@@H](CO)C(=O)N[C@@H](CO)C(=O)N1CCC[C@H]1C(=O)N[C@@H](CCCCN)C(=O)NCC(N)=O)[C@@H](C)O [abtide clone 17-DPTA-^111In, metal not drawn] ({DTPA}-DLSRNLDFGRFLLYNAYVPGFTPTFISLTAEHLSSPKG-NH2)",localization to LNCaP xenograft tumors,[3],localized to LNCaP xenograft tumors

# Source: US20040229289A1, “Antigen binding peptides (abtides) from peptide libraries” (Cytogen Corporation, priority 1994, published 2004)
